Data taken from article PMC10996581 (The Journal of Cell Biology, 2024).
Where no end group is shown, it is not given here.

T1: IRE1αLDΔ308–357 mutant (human, UniProt O75460 24-443, Δ308–357)
T1 sequence: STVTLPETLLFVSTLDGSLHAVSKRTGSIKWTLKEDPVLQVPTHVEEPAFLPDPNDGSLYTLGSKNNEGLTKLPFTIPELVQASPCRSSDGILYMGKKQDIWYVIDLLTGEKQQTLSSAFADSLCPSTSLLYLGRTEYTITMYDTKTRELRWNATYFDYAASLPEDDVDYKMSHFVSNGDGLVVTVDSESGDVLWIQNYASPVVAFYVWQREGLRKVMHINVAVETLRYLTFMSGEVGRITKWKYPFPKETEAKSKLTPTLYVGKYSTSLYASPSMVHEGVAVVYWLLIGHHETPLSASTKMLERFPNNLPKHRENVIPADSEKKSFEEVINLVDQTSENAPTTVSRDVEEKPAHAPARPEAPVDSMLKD

B1: His6-CTxA1 (enzymatic A1 chain of the cholera toxin A subunit) (domain or fragment)
chain: NDDKLYRADSRPPDEIKQSGGLMPRGQSEYFDRGTQMNINLYDHARGTQTGFVRHDDGYVSTSISLRSAHLVGQTILSGHSTYYIYVIATAPNMFNVNDVLGAYSPHPDEQEVSALGGIPYSQIYGWYRVHFGVLDEQLHRNRGYRDRYYSNLDIAPAADGYGLAGFPPEHRAWREEPWIHHAPPGCGNAPRSS

Key:
[1] = molecular target: T1, IRE1αLDΔ308–357 mutant; test: MST
[2] = molecular target: T1, IRE1αLDΔ308–357 mutant; test: […]

Binder	binding result [1]	binding result [2]
B1	binds	
IYGWYRVHFGVLDEQLHR (also: 5-FAM labelled, position not given here) [CTxA_(I124-R141) peptide, 5-FAM labelled]		binds
